# Reference: paper PMC10539301, “Structure of the human ATAD2 AAA+ histone chaperone reveals mechanism of regulation and inter-subunit communication” (Communications Biology, 2023)
# Substitutions are numbered along the chain they refer to. Names may count otherwise.
# B1: N-terminally truncated ATAD2 (aa 403-1390), wild type (domain or fragment, human, UniProt Q6PL18 403-1390, looked up)
# chain: DRMKIGASLADVDPMQLDSSVRFDSVGGLSNHIAALKEMVVFPLLYPEVFEKFKIQPPRGCLFYGPPGTGKTLVARALANECSQGDKRVAFFMRKGADCLSKWVGESERQLRLLFDQAYQMRPSIIFFDEIDGLAPVRSSRQDQIHSSIVSTLLALMDGLDSRGEIVVIGATNRLDSIDPALRRPGRFDREFLFSLPDKEARKEILKIHTRDWNPKPLDTFLEELAENCVGYCGADIKSICAEAALCALRRRYPQIYTTSEKLQLDLSSINISAKDFEVAMQKMIPASQRAVTSPGQALSTVVKPLLQNTVDKILEALQRVFPHAEFRTNKTLDSDISCPLLESDLAYSDDDVPSVYENGLSQKSSHKAKDNFNFLHLNRNACYQPMSFRPRILIVGEPGFGQGSHLAPAVIHALEKFTVYTLDIPVLFGVSTTSPEETCAQVIREAKRTAPSIVYVPHIHVWWEIVGPTLKATFTTLLQNIPSFAPVLLLATSDKPHSALPEEVQELFIRDYGEIFNVQLPDKEERTKFFEDLILKQAAKPPISKKKAVLQALEVLPVAPPPEPRSLTAEEVKRLEEQEEDTFRELRIFLRNVTHRLAIDKRFRVFTKPVDPDEVPDYVTVIKQPMDLSSVISKIDLHKYLTVKDYLRDIDLICSNALEYNPDRDPGDRLIRHRACALRDTAYAIIKEELDEDFEQLCEEIQESRKKRGCSSSKYAPSYYHVMPKQNSTLVGDKRSDPEQNEKLKTPSTPVACSTPAQLKRKIRKKSNWYLGTIKKRRKISQAKDDSQNAIDHKIESDTEETQDTSVDHNETGNTGESSVEENEKQQNASESKLELRNNSNTCNIENELEDSRKTTACTELRDKIACNGDASSSQIIHISDENEGKEMCVLRMTRARRSQVEQQQLITVEKALAILSQPTPSLVVDHERLKNLLKTVVKKSQNYNIFQLENLYAVISQCIYRHRKDHDKTSLIQKMEQEVENFSCSR
# notes: ATAD2 (ATPase family AAA domain-containing 2), human, aa 403-1390, from a codon-optimized synthetic full-length gene (Genscript); The vector has a Tev protease site after the 3xFlag tag; No cleavage step is described in the purification; also called wild type ATAD2
# B2: ATAD2 Walker B mutant (E532Q), aa 403-1390 (domain or fragment, human, UniProt Q6PL18 403-1390, looked up)
# chain: B1 chain with E130Q
# notes: ATAD2 (ATPase family AAA domain-containing 2), human, aa 403-1390, Walker B mutation E532Q; A Tev site follows the tag, and no cleavage step is described; also called ATAD2 (in the structure sections); not shown: 3xFlag, N-terminal, kept
# B3: ATAD2 LD/Walker B triple mutant (D415A/E532Q/R540A), aa 403-1390 (domain or fragment, human, UniProt Q6PL18 403-1390, looked up)
# chain: B1 chain with D13A, E130Q, R138A
# notes: ATAD2, human, aa 403-1390, with D415A, E532Q and R540A; source: SF9 cells (baculovirus), purified
# Key:
# [1] = target: the molecule itself; assay: SEC + native gel or EMSA + other: negative stain electron microscopy; purified ATAD2 (aa 403-1390) variants; wild type in the absence and presence of ATP; Supplementary Fig. 1
# [2] = target: the molecule itself; assay: cryo-EM structure; ATAD2 Walker B mutant and refolded H3/H4 or H3/H4K5Q mixed 1:1.5 in 150 mM NaCl, cross-linked with 1 mM DSS, purified on a 10-30% sucrose gradient; vitrified at 1.2 mg/mL with 1 mM Mg-ATP; classes I-III at 3.8, 4.3, 4.3 Å
# [3] = target: Histone H4 (X. laevis, recombinant) (X. laevis, UniProt P62799 1-103); assay: cross-linking; DSS 1 mM, 30 min, 37 °C, in 25 mM HEPES pH 7.5, 150 mM NaCl, 5% glycerol, 1 mM DTT; sucrose gradient fraction of hexameric ATAD2; cross-links found by mass spectrometry (XL-MS); details: both partners purified
# [4] = target: T1, Histone H3/H4 complex (X. laevis, wild type, refolded) (X. laevis, UniProt P84233 1-136; P62799 1-103); assay: as above; details: both partners purified
# T1 construct: It was pooled as the H3/H4 tetramer in 2 M NaCl and diluted to 150 mM NaCl before mixing; also called wild type H3/H4
# [5] = target: Histone H3 (X. laevis, recombinant) (X. laevis, UniProt P84233 1-136); assay: as above; details: both partners purified
Binder,binding result [1],stoichiometry N [2],binding result [3],binding result [4],binding result [5]
B1,binds,,,,
B2,,6,binds,binds,binds
B3,binds,,,,
